Experimental data from patent US20130130922, “ANALYSIS OF METHYLATION SITES” (Centre for Addiction and Mental Health, published 2013).

Target: M.SssI Q142A/N370A (UniProt P15840 SEQ:1-386, Q142A,N370A)
Test: Ado-6-amine 80 uM, no Mg, 37 C; modified deoxycytidine detected by HPLC/ESI-MS
Conditions: tags: His6

M.SssI Q142A/N370A, sequence (P15840 whole entry Q142A/N370A): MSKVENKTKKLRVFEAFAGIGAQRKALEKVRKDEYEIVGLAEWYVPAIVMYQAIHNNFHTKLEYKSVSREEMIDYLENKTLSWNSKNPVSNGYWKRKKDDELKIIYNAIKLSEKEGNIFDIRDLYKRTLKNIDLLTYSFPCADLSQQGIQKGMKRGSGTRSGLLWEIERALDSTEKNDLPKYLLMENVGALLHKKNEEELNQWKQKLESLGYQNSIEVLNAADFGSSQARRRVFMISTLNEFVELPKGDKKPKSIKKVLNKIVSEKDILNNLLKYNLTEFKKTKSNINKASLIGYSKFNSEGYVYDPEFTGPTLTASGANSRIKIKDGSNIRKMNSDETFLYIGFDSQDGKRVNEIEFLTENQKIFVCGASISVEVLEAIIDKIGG

B1: 24-mer duplex oligonucleotide (dsDNA)
DNA 1: GCATTACGCGCCAGGTCGTTTCGT
DNA 2: TACGAAACGACCTGGCGCGTAATG
  binding result: binds
